Results from publication PMC2714540.

Target: Smurf1 (UniProt Q9HCE7)
Test: binding to Smurf1, pull-down format inferred
Conditions: reference: Tal210-605 wild type; sites S425

Substance: talin (talin head, TH) 210-605 (from UniProt P26039) Tal210-605 S425A
- binding against the reference: stronger
